# Data: PMC3171579 (ACS combinatorial science, 2011)
# Non-standard residues stand in square brackets, D forms with d. *: point of attachment. Dkb = 3,3-dimethyl-2-ketobutyryl, CC(C)(C)C(=O)C(=O)*; d(β3hF) = N[C@@H](CC(=O)O)Cc1ccccc1; Pip = O=C(O)[C@@H]1CCCCN1; Nle = CCCC[C@H](N)C(=O)O
# Test system: cyclophilin A (CypA)
# Assay: not given
# Conditions: cell free assay; cited from earlier work
row,Molecule,IC50 [µM]
1,CC[C@H]1C[C@H](C)[C@@]2(NC1=O)O[C@@H](C[C@H](O)[C@@H](C)CC/C=C/C=C(\C)[C@@H]1C/C=C/C=C/[C@H](O)[C@H](C)[C@@H](O)[C@@H](CCC(C)=O)C(=O)N[C@@H](C(C)C)C(=O)N[C@@H](Cc3cccc(O)c3)C(=O)N3CCC[C@H](N3)C(=O)O1)[C@H](C)[C@H](O)[C@@H]2C [Sanglifehrin A],~0.007

# Molecular target: T1, FK506-binding protein 12 (human, UniProt P62942 1-108)
# Assay: fluorescence polarisation
# Conditions: not given
# T1 sequence (P62942 whole entry): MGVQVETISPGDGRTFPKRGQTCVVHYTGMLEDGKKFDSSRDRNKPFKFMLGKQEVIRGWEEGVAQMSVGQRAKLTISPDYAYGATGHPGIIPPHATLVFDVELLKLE
row,Molecule,IC50 [µM]
1,cyclo(AA[dA][Dkb][Pip][dI]Q) (also: Dkb 4 joined by ester to 3) [rapalog 2i],266
2,cyclo(AAF[Dkb][Pip][d(β3hF)]Q) (also: Dkb 4 joined by ester to 3) [rapalog 2k],18

# Molecular target: T1, FK506-binding protein 12
# Assay: fluorescence polarisation
# Conditions: not given
# Remark: another data set of the same source
row,Molecule,IC50 [µM]
1,"cyclo(A[dV]P[dA][Dkb][Pip][d(β3hF)]Q) (also: 5 Dkb: ester to 4) [rapalog 12 (R3 Pro, R4 D-Val)]",43
2,"cyclo(AP[dA][Dkb][Pip][d(β3hF)]Q) (also: ester bond between residues 3 and 4) [rapalog 11 (R3 Pro, R4 Ala)]",33
3,"cyclo(AP[dF][dA][Dkb][Pip][d(β3hF)]Q) (also: 5 Dkb: ester to 4) [rapalog 12 (R3 D-Phe, R4 Pro)]",> 100
4,"cyclo(A[dF][dV][dA][Dkb][Pip][d(β3hF)]Q) (also: 5 Dkb: ester to 4) [rapalog 12 (R3 D-Val, R4 D-Phe)]",> 100
5,"cyclo(PP[dA][Dkb][Pip][d(β3hF)]Q) (also: 4 Dkb: ester to 3) [rapalog 11 (R3 Pro, R4 Pro)]",27
6,"cyclo([dV][dV][dA][Dkb][Pip][d(β3hF)]Q) (also: ester bond between residues 3 and 4) [rapalog 11 (R3 D-Val, R4 D-Val)]",> 100
7,"cyclo(A[Nle]K[dA][Dkb][Pip][d(β3hF)]Q) (also: 5 Dkb: ester to 4) [rapalog 12 (R3 Lys, R4 Nle)]",> 100
8,"cyclo(KP[dA][Dkb][Pip][d(β3hF)]Q) (also: 4 Dkb: ester to 3) [rapalog 11 (R3 Pro, R4 Lys)]",36
9,"cyclo([dT]P[dA][Dkb][Pip][d(β3hF)]Q) (also: 4 Dkb: ester to 3) [rapalog 11 (R3 Pro, R4 D-Thr)]",41
10,"cyclo(ADP[dA][Dkb][Pip][d(β3hF)]Q) (also: 5 Dkb: ester to 4) [rapalog 12 (R3 Pro, R4 Asp)]",3
11,"cyclo(K[Nle][dA][Dkb][Pip][d(β3hF)]Q) (also: ester bond between residues 3 and 4) [rapalog 11 (R3 Nle, R4 Lys)]",> 100
12,"cyclo(A[dT]K[dA][Dkb][Pip][d(β3hF)]Q) (also: 5 Dkb: ester to 4) [rapalog 12 (R3 Lys, R4 D-Thr)]",> 100
13,"cyclo(KK[dA][Dkb][Pip][d(β3hF)]Q) (also: ester bond between residues 3 and 4) [rapalog 11 (R3 Lys, R4 Lys)]",> 100
14,"cyclo(DP[dA][Dkb][Pip][d(β3hF)]Q) (also: ester bond between residues 3 and 4) [rapalog 11 (R3 Pro, R4 Asp)]",21
15,"cyclo([dF][dV][dA][Dkb][Pip][d(β3hF)]Q) (also: ester bond between residues 3 and 4) [rapalog 11 (R3 D-Val, R4 D-Phe)]",> 100
16,"cyclo([dV]P[dA][Dkb][Pip][d(β3hF)]Q) (also: 4 Dkb: ester to 3) [rapalog 11 (R3 Pro, R4 D-Val)]",64
17,"cyclo(AAK[dA][Dkb][Pip][d(β3hF)]Q) (also: 5 Dkb: ester to 4) [rapalog 12 (R3 Lys, R4 Ala)]",> 100
18,"cyclo(A[dV][dV][dA][Dkb][Pip][d(β3hF)]Q) (also: 5 Dkb: ester to 4) [rapalog 12 (R3 D-Val, R4 D-Val)]",> 100
19,"cyclo([dT]K[dA][Dkb][Pip][d(β3hF)]Q) (also: ester bond between residues 3 and 4) [rapalog 11 (R3 Lys, R4 D-Thr)]",62
20,"cyclo(AP[dT][dA][Dkb][Pip][d(β3hF)]Q) (also: 5 Dkb: ester to 4) [rapalog 12 (R3 D-Thr, R4 Pro)]",> 100
21,"cyclo(AGP[dA][Dkb][Pip][d(β3hF)]Q) (also: 5 Dkb: ester to 4) [rapalog 12 (R3 Pro, R4 Gly)]",6

row,Molecule,IC50 [µM]
1,"cyclo([Nle]P[dA][Dkb][Pip][d(β3hF)]Q) (also: 4 Dkb: ester to 3) [rapalog 11 (R3 Pro, R4 Nle)]",71
2,"cyclo(AK[dA][Dkb][Pip][d(β3hF)]Q) (also: ester bond between residues 3 and 4) [rapalog 11 (R3 Lys, R4 Ala)]",> 100
3,"cyclo(PK[dA][Dkb][Pip][d(β3hF)]Q) (also: ester bond between residues 3 and 4) [rapalog 11 (R3 Lys, R4 Pro)]",58
4,"cyclo(K[dT][dA][Dkb][Pip][d(β3hF)]Q) (also: ester bond between residues 3 and 4) [rapalog 11 (R3 D-Thr, R4 Lys)]",> 100
5,"cyclo(WP[dA][Dkb][Pip][d(β3hF)]Q) (also: 4 Dkb: ester to 3) [rapalog 11 (R3 Pro, R4 Trp)]",21
6,"cyclo(AP[dV][dA][Dkb][Pip][d(β3hF)]Q) (also: 5 Dkb: ester to 4) [rapalog 12 (R3 D-Val, R4 Pro)]",> 100
7,"cyclo(A[dF]P[dA][Dkb][Pip][d(β3hF)]Q) (also: 5 Dkb: ester to 4) [rapalog 12 (R3 Pro, R4 D-Phe)]",87
8,"cyclo(AK[dF][dA][Dkb][Pip][d(β3hF)]Q) (also: 5 Dkb: ester to 4) [rapalog 12 (R3 D-Phe, R4 Lys)]",> 100
9,"cyclo(AKA[dA][Dkb][Pip][d(β3hF)]Q) (also: 5 Dkb: ester to 4) [rapalog 12 (R3 Ala, R4 Lys)]",> 100
10,"cyclo(WK[dA][Dkb][Pip][d(β3hF)]Q) (also: ester bond between residues 3 and 4) [rapalog 11 (R3 Lys, R4 Trp)]",12
11,"cyclo(GK[dA][Dkb][Pip][d(β3hF)]Q) (also: ester bond between residues 3 and 4) [rapalog 11 (R3 Lys, R4 Gly)]",93
12,"cyclo([dV]K[dA][Dkb][Pip][d(β3hF)]Q) (also: ester bond between residues 3 and 4) [rapalog 11 (R3 Lys, R4 D-Val)]",80
13,"cyclo(A[dT]P[dA][Dkb][Pip][d(β3hF)]Q) (also: 5 Dkb: ester to 4) [rapalog 12 (R3 Pro, R4 D-Thr)]",38
14,"cyclo([dF]P[dA][Dkb][Pip][d(β3hF)]Q) (also: 4 Dkb: ester to 3) [rapalog 11 (R3 Pro, R4 D-Phe)]",46
15,"cyclo(AKP[dA][Dkb][Pip][d(β3hF)]Q) (also: 5 Dkb: ester to 4) [rapalog 12 (R3 Pro, R4 Lys)]",29
16,"cyclo(K[dF][dA][Dkb][Pip][d(β3hF)]Q) (also: ester bond between residues 3 and 4) [rapalog 11 (R3 D-Phe, R4 Lys)]",> 100
17,"cyclo(A[dT][Nle][dA][Dkb][Pip][d(β3hF)]Q) (also: 5 Dkb: ester to 4) [rapalog 12 (R3 Nle, R4 D-Thr)]",> 100
18,"cyclo(PA[dA][Dkb][Pip][d(β3hF)]Q) (also: ester bond between residues 3 and 4) [rapalog 11 (R3 Ala, R4 Pro)]",> 100
19,"cyclo(AAP[dA][Dkb][Pip][d(β3hF)]Q) (also: 5 Dkb: ester to 4) [rapalog 12 (R3 Pro, R4 Ala)]",21
20,"cyclo([Nle][dT][dA][Dkb][Pip][d(β3hF)]Q) (also: ester bond between residues 3 and 4) [rapalog 11 (R3 D-Thr, R4 Nle)]",> 100
